Results as given in the Immune Epitope Database (IEDB).
One block for each sequence: values may come before it.

Legend:
HLA-B*53:01 = assay: IEDB peptide-MHC binding, purified MHC/competitive/radioactivity; filed as Kd, often an IC50 or EC50 that approximates it; ≥ and ≤ were set here for values at or beyond the usual limits of such assays
HLA-B*51:01 = assay: as above
HLA-B*54:01 = assay: as above
HLA-B*35:01 = assay: as above
HLA-B*07:02 [1] = assay: as above
HLA-A*03:01 [2] = assay: IEDB peptide-MHC binding, purified MHC/competitive/fluorescence; filed as Kd, often an IC50 or EC50 that approximates it; ≥ and ≤ were set here for values at or beyond the usual limits of such assays; conditions: source organism: Bacillus thuringiensis str. Al Hakam
HLA-B*27:05 = assay: IEDB peptide-MHC binding, purified MHC/direct/fluorescence; filed as Kd, often an IC50 or EC50 that approximates it; ≥ and ≤ were set here for values at or beyond the usual limits of such assays
HLA-A*01:01 = assay: as above
HLA-B*58:01 = assay: as above
HLA-B*48:01 = assay: as above
HLA-B*46:01 = assay: as above
HLA-B*15:01 = assay: as above; conditions: source organism: Mammarenavirus juninense
HLA-B*18:01 = assay: as above
HLA-B*57:01 = assay: as above
HLA-B*44:02 = assay: as above
HLA-A*03:01 [3] = assay: as above
HLA-B*08:01 = assay: as above
HLA-B*40:01 = assay: as above
HLA-B*07:02 [4] = assay: as above; conditions: source organism: Mammarenavirus juninense
HLA-A*31:01 = assay: as above
HLA-A*02:01 [5] = assay: as above; conditions: source organism: Mammarenavirus juninense
HLA-A*11:01 [6] = assay: IEDB peptide-MHC binding, purified MHC/competitive/fluorescence; ≥ and ≤ were set here for values at or beyond the usual limits of such assays
HLA-A*24:02 = assay: as above; conditions: source organism: Sudan ebolavirus
HLA-A*02:01 [7] = assay: as above; conditions: source organism: Sudan ebolavirus
HLA-A*11:01 [8] = assay: IEDB peptide-MHC binding, purified MHC/direct/fluorescence; filed as Kd, often an IC50 or EC50 that approximates it; ≥ and ≤ were set here for values at or beyond the usual limits of such assays; conditions: source organism: Mycobacterium tuberculosis variant bovis BCG str. Pasteur 1173P2
HLA-A*69:01 = assay: as above; conditions: source organism: Mycobacterium tuberculosis variant bovis BCG str. Pasteur 1173P2
[9] = source organism: SARS coronavirus Tor2
[10] = source organism: Mammarenavirus juninense
[11] = source organism: Vaccinia virus WR
[12] = source organism: Mammarenavirus lassaense
[13] = source organism: Triticum aestivum
[14] = source organism: Zaire ebolavirus
[15] = source organism: Mycobacterium tuberculosis variant bovis BCG str. Pasteur 1173P2

Sequence: APAICHEGKA
Kd (HLA-B*53:01; [9]): 17.3 µM
Kd (HLA-B*51:01; [9]): ≥ 43 µM
Kd (HLA-B*54:01; [9]): 1.47 µM
Kd (HLA-B*35:01; [9]): ≥ 53.5 µM
Kd (HLA-B*07:02 [1]; [9]): 2.01 µM

Sequence: CLRIPMTDK
Kd (HLA-A*03:01 [2]): 0.0529 µM

Sequence: DLKLVDVKL
Kd (HLA-B*27:05; [10]): ≥ 20 µM
Kd (HLA-A*01:01; [10]): ≥ 20 µM
Kd (HLA-B*58:01; [10]): ≥ 20 µM
Kd (HLA-B*48:01; [10]): ≥ 20 µM
Kd (HLA-B*46:01; [10]): ≥ 20 µM
Kd (HLA-B*15:01): ≥ 20 µM
Kd (HLA-B*18:01; [10]): ≥ 20 µM
Kd (HLA-B*57:01; [10]): ≥ 20 µM
Kd (HLA-B*44:02; [10]): ≥ 20 µM
Kd (HLA-A*03:01 [3]; [10]): ≥ 20 µM
Kd (HLA-B*08:01; [10]): ≥ 20 µM
Kd (HLA-B*40:01; [10]): ≥ 20 µM
Kd (HLA-B*07:02 [4]): ≥ 20 µM
Kd (HLA-A*31:01; [10]): ≥ 20 µM
Kd (HLA-A*02:01 [5]): ≥ 20 µM

Sequence: DPDHYKDYA
Kd (HLA-B*53:01; [11]): ≥ 75.5 µM
Kd (HLA-B*51:01; [11]): ≥ 22.5 µM
Kd (HLA-B*54:01; [11]): 7.01 µM
Kd (HLA-B*35:01; [11]): ≥ 77.4 µM
Kd (HLA-B*07:02 [1]; [11]): 14.8 µM

Sequence: DPGNPNCLEW
Kd (HLA-B*53:01; [11]): 0.00664 µM
Kd (HLA-B*51:01; [11]): ≥ 69.6 µM
Kd (HLA-B*54:01; [11]): ≥ 69.9 µM
Kd (HLA-B*35:01; [11]): ≥ 56.5 µM
Kd (HLA-B*07:02 [1]; [11]): ≥ 69.6 µM

Sequence: EPSGNNYHIL
Kd (HLA-B*53:01; [11]): 2.96 µM
Kd (HLA-B*51:01; [11]): ≥ 69.6 µM
Kd (HLA-B*54:01; [11]): 15.5 µM
Kd (HLA-B*35:01; [11]): 8.08 µM
Kd (HLA-B*07:02 [1]; [11]): 1.67 µM

Sequence: EQLGVPLHL
Kd (HLA-B*48:01; source organism: Vibrio alginolyticus 12G01): 0.488 µM

Sequence: EWAFWENKK
IC50 (HLA-A*11:01 [6]; source organism: Sudan ebolavirus): 10.8 µM
IC50 (HLA-A*24:02): 15.3 µM
IC50 (HLA-A*02:01 [7]): ≥ 183 µM

Sequence: FPAQPGLTSA
Kd (HLA-B*53:01; [12]): 2.91 µM
Kd (HLA-B*51:01; [12]): ≥ 32.3 µM
Kd (HLA-B*54:01; [12]): 0.00639 µM
Kd (HLA-B*35:01; [12]): 0.051 µM
Kd (HLA-B*07:02 [1]; [12]): 0.0496 µM

Kd (HLA-B*53:01; [13]): 0.323 µM
Kd (HLA-B*51:01; [13]): 0.00353 µM
Kd (HLA-B*54:01; [13]): 4.33 µM
Kd (HLA-B*35:01; [13]): 0.735 µM
Kd (HLA-B*07:02 [1]; [13]): 1.03 µM
Sequence: FPSQQPYL

Sequence: GEWAFWETK
IC50 (HLA-A*11:01 [6]; [14]): 58 µM

Sequence: HGEYAPFAR
IC50 (HLA-A*11:01 [6]; [14]): 61.7 µM

Sequence: IIRVTSELL
Kd (HLA-B*27:05; [15]): ≥ 20 µM
Kd (HLA-A*01:01; [15]): ≥ 20 µM
Kd (HLA-A*11:01 [8]): ≥ 20 µM
Kd (HLA-B*58:01; [15]): ≥ 20 µM
Kd (HLA-B*48:01; [15]): ≥ 20 µM
Kd (HLA-B*46:01; [15]): ≥ 20 µM
Kd (HLA-B*18:01; [15]): ≥ 20 µM
Kd (HLA-B*57:01; [15]): ≥ 20 µM
Kd (HLA-B*44:02; [15]): ≥ 20 µM
Kd (HLA-A*03:01 [3]; [15]): ≥ 20 µM
Kd (HLA-A*69:01): ≥ 20 µM
Kd (HLA-B*08:01; [15]): 13 µM
Kd (HLA-B*40:01; [15]): ≥ 20 µM
Kd (HLA-A*31:01; [15]): ≥ 20 µM

Sequence: IPTNFSISI
Kd (HLA-B*53:01; [9]): 0.0107 µM
Kd (HLA-B*51:01; [9]): 0.0571 µM
Kd (HLA-B*54:01; [9]): 0.0499 µM
Kd (HLA-B*35:01; [9]): 0.0312 µM
Kd (HLA-B*07:02 [1]; [9]): 0.0641 µM

Sequence: IPYSRVNHA
Kd (HLA-B*53:01; [11]): 0.177 µM
Kd (HLA-B*51:01; [11]): 0.0232 µM
Kd (HLA-B*54:01; [11]): 0.000133 µM
Kd (HLA-B*35:01; [11]): 0.0572 µM
Kd (HLA-B*07:02 [1]; [11]): 0.00663 µM
